Target: Recombinant wild-type mouse talin1 fragment R11 (residues 1,974–2,140) (mouse) (UniProt P26039)
Experiment: ITC

Sequence of UniProt P26039 (P26039 1974-2140): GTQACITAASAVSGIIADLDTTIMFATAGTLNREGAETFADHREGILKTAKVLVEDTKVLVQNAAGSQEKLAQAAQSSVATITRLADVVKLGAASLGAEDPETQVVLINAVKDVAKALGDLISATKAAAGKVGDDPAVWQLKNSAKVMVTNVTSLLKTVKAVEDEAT

Kd: 17 µM
dH: 4.8 kcal/mol
Substance: tensin3 H1 peptide (from UniProt Q68CZ2 692-712)
